Measurements from patent publication US20060246046A1 (published 2006).
Where a chain is given by its changes, count along the chain named. In names and notes the source's numbering stands.

T1: factor XIIIa (human, UniProt P00488 39-732)
T1 sequence (looked up): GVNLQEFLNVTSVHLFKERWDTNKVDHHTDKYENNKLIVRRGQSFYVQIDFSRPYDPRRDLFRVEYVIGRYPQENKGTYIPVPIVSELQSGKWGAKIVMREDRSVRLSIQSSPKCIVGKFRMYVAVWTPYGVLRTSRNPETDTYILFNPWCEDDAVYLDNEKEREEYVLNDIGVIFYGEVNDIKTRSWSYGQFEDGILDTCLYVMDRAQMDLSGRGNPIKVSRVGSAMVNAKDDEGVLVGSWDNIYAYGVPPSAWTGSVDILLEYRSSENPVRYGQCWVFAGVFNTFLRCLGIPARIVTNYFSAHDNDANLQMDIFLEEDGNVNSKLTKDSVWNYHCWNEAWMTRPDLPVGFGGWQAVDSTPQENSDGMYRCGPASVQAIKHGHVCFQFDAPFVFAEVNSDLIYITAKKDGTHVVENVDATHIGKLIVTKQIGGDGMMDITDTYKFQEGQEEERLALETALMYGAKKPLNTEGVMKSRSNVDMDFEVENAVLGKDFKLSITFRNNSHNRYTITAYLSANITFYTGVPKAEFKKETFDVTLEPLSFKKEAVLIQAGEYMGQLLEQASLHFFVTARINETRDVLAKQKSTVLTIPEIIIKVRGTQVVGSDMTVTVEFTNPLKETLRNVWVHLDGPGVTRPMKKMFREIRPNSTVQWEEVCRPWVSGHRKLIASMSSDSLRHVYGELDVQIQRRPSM

B1: modified tridegin G12A (protein, not shown: small tags and cut ends)
chain: MKLLPCKEWHQAIPNPRCWCGADLECAQDQYCAFIPQCRPRSELIKPMDDIYQRPVEFPNLPLKPREE
B2: modified tridegin Cys variant C06A (protein, not shown: small tags and cut ends)
chain: B1 chain with C6A, A12G
B3: modified tridegin Cys variant C18A (protein, not shown: small tags and cut ends)
chain: B1 chain with A12G, C18A
B4: modified tridegin Cys variant C20A (protein, not shown: small tags and cut ends)
chain: B1 chain with A12G, C20A
B5: modified tridegin Cys variant C26A (protein, not shown: small tags and cut ends)
chain: B1 chain with A12G, C26A
B6: modified tridegin Cys variant C32A (protein, not shown: small tags and cut ends)
chain: B1 chain with A12G, C32A
B7: modified tridegin Cys variant C26A; +C38A (protein, not shown: small tags and cut ends)
chain: B1 chain with A12G, C26A, C38A
B8: modified tridegin L24A (protein, not shown: small tags and cut ends)
chain: B1 chain with A12G, L24A
B9: modified tridegin Y31A (protein, not shown: small tags and cut ends)
chain: B1 chain with A12G, Y31A
B10: 20 amino acid-long tridegin peptide SEQ ID NO.24 (peptide)
peptide: Ac-IKPMDDIYQRPVEFPNLPLK-NH2
B11: 20 amino acid-long tridegin peptide SEQ ID NO.25 (peptide)
peptide: Ac-PMDDIYQRPVEFPNLPLKPR-NH2
B12: 20 amino acid-long tridegin peptide SEQ ID NO.26 (peptide)
peptide: Ac-DDIYQRPVEFPNLPLKPREE-NH2
B13: MDDIYQRPVEFPNLPL (SEQ ID No. 87) (16mer) (peptide)
peptide: MDDIYQRPVEFPNLPL
B14: DDIYQRPVEFPNLP (SEQ ID No. 88) (14mer) (peptide)
peptide: DDIYQRPVEFPNLP

Assays:
Test in all cases: cell-based or functional assay
[1] = target: T1, factor XIIIa
[2] = target: T1, factor XIIIa; remark: listed apart in the source
[3] = target: T1, factor XIIIa; remark: listed apart in the source

Binder	Relative inhibitory effect (%) at 5.45 µM, wild type = 100% [1]	further results
B1	97%	
B2	72%	
B3	93%	
B4	63%	
B5	82%	
B6	86%	
B7	80%	
B8	92%	
B9	69%	
B10		IC50, Berichrom assay, HPLC-purified peptide [2]: 7 µM; Relative inhibitory effect (%) at 7.27 µM, recombinant tridegin = 100% [3]: 43.5%
B11		IC50, Berichrom assay, HPLC-purified peptide [2]: 4 µM; Relative inhibitory effect (%) at 7.27 µM, recombinant tridegin = 100% [3]: 42.1%
B12		IC50, Berichrom assay, HPLC-purified peptide [2]: 5 µM; Relative inhibitory effect (%) at 7.27 µM, recombinant tridegin = 100% [3]: 35.6%
B13		IC50, Berichrom test, purified peptide [2]: 19 µM
B14		IC50, Berichrom test, purified peptide [2]: ~280 µM
